Substrate: CCCC(=O)Oc1ccc([N+](=O)[O-])cc1
Experiment: purified protein
Type: biochemical, Pseudideonella sakaiensis
[1] = 50 mM potassium phosphate pH 7.5, 50°C or 55°C (50°C is the optimum of this enzyme)
[2] = 50 mM potassium phosphate pH 7.5, 50°C or 55°C (55°C is the optimum of this enzyme)

Protein	Km [1] [µM]	kcat [1] [s⁻¹]	kcat/Km [1] [M⁻¹ s⁻¹]	Km [2] [µM]	kcat [2] [s⁻¹]	kcat/Km [2] [M⁻¹ s⁻¹]
FAST-PETase (Pseudideonella sakaiensis; D186H/N233K/R224Q/R280A/S121E) (protein, FAST-PETase, C-terminal 6xHis, pET28a, E. coli Origami 2(DE3), Ni-NTA) QTNPYARGPNPTAASLEASAGPFTVRSFTVSRPSGYGAGTVYYPTNAGGTVGAIAIVPGYTARQSSIKWWGPRLASHGFVVITIDTNSTLDQPESRSSQQMAALRQVASLNGTSSSPIYGKVDTARMGVMGWSMGGGGSLISAANNPSLKAAAPQAPWHSSTNFSSVTVPTLIFACENDSIAPVNSSALPIYDSMSQNAKQFLEIKGGSHSCANSGNSNQALIGKKGVAWMKRFMDNDTRYSTFACENPNSTAVSDFRTANCS	880 ± 160	0.724 ± 0.0532	824 ± 112			
FAST-PETase-S1v1 (Pseudideonella sakaiensis; D186H/N233K/R224Q/R280A/S121E) (protein, artificial peptide S1v1 (AEAEAHAH)2 fused to C-terminus via PT-linker …, C-terminal 6xHis, E. coli Origami 2(DE3), Ni-NTA) QTNPYARGPNPTAASLEASAGPFTVRSFTVSRPSGYGAGTVYYPTNAGGTVGAIAIVPGYTARQSSIKWWGPRLASHGFVVITIDTNSTLDQPESRSSQQMAALRQVASLNGTSSSPIYGKVDTARMGVMGWSMGGGGSLISAANNPSLKAAAPQAPWHSSTNFSSVTVPTLIFACENDSIAPVNSSALPIYDSMSQNAKQFLEIKGGSHSCANSGNSNQALIGKKGVAWMKRFMDNDTRYSTFACENPNSTAVSDFRTANCS				1220 ± 180	1.36 ± 0.0918	1110 ± 138
S1v1-FAST-PETase (Pseudideonella sakaiensis; D186H/N233K/R224Q/R280A/S121E) (protein, artificial peptide S1v1 (AEAEAHAH)2 fused to N-terminus via PT-linker …, C-terminal 6xHis, E. coli Origami 2(DE3), Ni-NTA) QTNPYARGPNPTAASLEASAGPFTVRSFTVSRPSGYGAGTVYYPTNAGGTVGAIAIVPGYTARQSSIKWWGPRLASHGFVVITIDTNSTLDQPESRSSQQMAALRQVASLNGTSSSPIYGKVDTARMGVMGWSMGGGGSLISAANNPSLKAAAPQAPWHSSTNFSSVTVPTLIFACENDSIAPVNSSALPIYDSMSQNAKQFLEIKGGSHSCANSGNSNQALIGKKGVAWMKRFMDNDTRYSTFACENPNSTAVSDFRTANCS				860 ± 150	0.581 ± 0.0392	679 ± 72.2

Reference: article PMC12190498, “Improving the Catalytic Activity and Thermostability of FAST-PETase with a Multifunctional Short Peptide” (Biomolecules, 2025)
